This note sets out measurements from US6890720B1, “Antigens derived from filaggrin and their use for diagnosing rheumatoid polyarthritis” (Biomerieux, priority 1996, dated 2005).

The subject of assay [1] is AFAs of the sera from patients suffering from RA. In words: Immunoblot of citrullinated and noncitrullinated fil-gst with individual sera and purified AFAs. The settings on record: citrullinated fil-gst; purified AFAs 4 μg/ml. The class given is binding, human. The protocol:
In a first series of experiments (FIG. 4a), the reactivity of noncitrullinated fil-gst (fil-gst alone, 30 minutes at 50° C.) and fil-gst citrullinated with PAD 30 minutes at 50° C. is compared with human sera composed of: • sera from normal persons: T(2) and T(3) • sera from patients suffering from RA having high AFA titers which are detected by immunotransfer on acido-neutral variants of human filaggrin, and by indirect immunofluorescence on cryosections of rat esophagus: RA(6) and RA(8); • anti-filaggrin antibodies purified from the serum from a patient suffering from RA by affinity chromatography, on a column grafted with acido-neutral isoforms of human filaggrin: AFA.
A positive control is also carried out with the monoclonal antibody AHF2.
In a second series of experiments (FIG. 4b), the reactivity of citrullinated fil-gst is confirmed with a largest series of sera: • 4 control sera: T(4) • 4 sera from patients suffering from RA not having AFAs detected by immunotransfer or by indirect immunofluorescence: RA(4) • 9 sera from patients suffering from RA with high AFA titers (three of them (*) were also tested in the first series of experiments): RA(9) • anti-filaggrin antibodies purified by affinity chromatography, on a column grafted with the acido-neutral isoforms of filaggrin, from a pool of sera from 40 patients suffering from RA: AFA • the monoclonal antibodies AHF (1-7). […]
(A western blot detects proteins with antibodies after separation by electrophoresis.)

Assay [2] concerns serum from a patient suffering from RA. Briefly: Dot-blot of peptides and fil-gst before and after PAD, serum from an RA patient. It counts as binding, human. The settings on record: after citrullination (PAD 30 minutes at 50° C.); 0.5 μg antigen per deposit; serum 1/2000. The protocol:
These 2 peptides, as well as fil-gst, were citrullinated by the action of PAD, for 30 minutes at 50° C., in the same reaction medium as that indicated in Example 2. The specific conditions for each peptide, and for the fil-gst are the following: • peptide S-47-S (SEQ ID NO:3): 4 mU/μmol arginine • peptide S-35-R (SEQ ID NO:4): 2.7 mU/μmol arginine • fil-gst as indicated in Example 2.
The reactivity of each peptide and that of fil-gst, before and after action of the enzyme, towards the monoclonal antibody AHF4, and the serum from a patient suffering from RA, is compared by dot-blot.
The operating conditions are the following: • 0.5 μg by deposition of each antigen (peptides, fil-gst, acido-neutral variants of filaggrin (AVF)) • nitrocellulose treatment 45 minutes at 80° C., before immunodetection • RA serum used at the dilution of 1/2000; monoclonal antibody AHF4 used at a concentration of 0.2 μg/ml

B1: citrullinated fil-gst: fil-gst deiminated in vitro by rabbit muscle peptidylarginine deiminase (protein)
chain: QSESAHGRTGTSTGGRQGSHHKQARDSSRHSTSQEGQDTIHGHPGSSSGGRQGSHYEQLVDRSGHSGSHHSHTTSQGRSDASHGHSGSRSASRQTRNDEQSGDGSRHSGSRHHEASSRADSSGHSQVGQGQSEGPRTSRNWGSSFSQDSDSQGHSEDSERWSGSASRNHHGSAQEQLRDGSRHPRSHQEDRAGHGHSADSSRQSGTRHTQTSSGGQAASSHEQARSSAGERHGSHHQQSADSSRHSGIGHGQASSAVRDSGHRGYSGSQASDNEGHSEDSDTQSVSAHGQAGSHQQSHQESARGRSGETSGHSGSFLYQVSTHE
modifications: non-natural residues; left off: a dimerising Fc or GST
notes: fil-gst deiminated in vitro by rabbit muscle peptidylarginine deiminase
As for B1, in assay [1], the “reactivity of antifilaggrin autoantibodies purified by affinity chromatography from RA sera” value is listed as “recognition of the fragments corresponding to lanes 1 to 5”. The “recognition by the serum from the patient suffering from RA” value in assay [2] is “recognizes”.
